Data on three proteins can be found in publication PMC8802628, “Selective activation of PFKL suppresses the phagocytic oxidative burst” (Cell, 2021).

For orientation: Km means the concentration of substrate that gives half-maximal velocity. A word on the stoichiometry N: it is a count of units in the complex or per binding partner.

Substrate in data set [1]: O=C(CO)[C@@H](O)[C@H](O)[C@H](O)COP(=O)(O)O
Kind of data set: Recombinant PFKL activity assay (relief of ATP inhibition). The conditions noted are these: other: PFKL wild type, pH 7.5, 225 μM ATP, 25.0 °C. Type of data set: biochemical, human. An excerpt: (§1) Recombinant N-terminal His-tagged human PFKL (NP_002617), PFKM (NP_000280), and PFKP (NM_002627.4) were generated as described ([Webb et al., 2015], [2017]). Point mutants of PFK1 were generated using the QuikChange Lightning kit (Aligent).
(§2) His-tagged PFK1 was expressed and purified as described with slight modifications ([Webb et al., 2015], [2017]). Briefly, baculovirus was generated using the Bac-to-Bac Expression system (Invitrogen). PFK1 was expressed in 2-5 × 10^6 sf9 cells at a multiplicity of infection of two for 48 h. […] Protein was quantified using a Bradford Protein Assay kit (ThermoFisher Scientific), and aliquotes frozen in liquid nitrogen for storage at −80°C.
(§3) PFK1 activity was determined using the rate of FBP production via an auxiliary enzyme assay adapted to a 96-well format ([Brüser et al., 2012]; [Webb et al., 2015]). […] For assays containing FBP, the rate of ADP production was determined using the auxiliary enzymes pyruvate kinase (PK) and lactate dehydrogenase (LDH) (MilliporeSigma) in a buffer containing 250 μM phosphoenolpyruvic acid, […] NADH, 50 mM HEPES pH 7.5, 100 mM KCl, 1 mM DTT, and effector concentrations as described in the text. […] Absorbance at 340 nm was measured using a Varioskan LUX Multimode microplate reader (ThermoFisher). […]

Data set [2] deals with the molecule itself. Put plainly: cryo-EM structure; 9 uM purified PFKL with 1 mM ATP, 2 mM F6P and 50 uM NA-11 in 20 mM HEPES pH 7.5, 1 mM DTT, 500 uM ammonium sulfate, 5% glycerol, 100 uM EDTA; refinement focused on a single, masked tetramer.
Substrate in data set [3]: O=C(CO)[C@@H](O)[C@H](O)[C@H](O)COP(=O)(O)O
Put plainly: Recombinant PFKL−pocket activity assay. The format is biochemical, human. The conditions noted are these: other: PFKL−pocket, pH 7.5, 225 μM ATP, 25.0 °C.
Description: as §1, §2, §3

Substrate in data set [4]: O=C(CO)[C@@H](O)[C@H](O)[C@H](O)COP(=O)(O)O
Put plainly: Recombinant PFKL−hook activity assay. The format is biochemical, human. The note with it: other: PFKL−hook, pH 7.5, 225 μM ATP, 25.0 °C.
Description: as §1, §2, §3

Changes are numbered by the printed parent chain. Numbers in names are those of the source. Where “and” joins values, the source holds several entries; their conditions need not be identical. Equal entries are not always repeated.

B1: phosphofructokinase-1 liver type (PFKL), human, recombinant N-terminal His-tagged (enzyme)
chain: MAAVDLEKLRASGAGKAIGVLTSGGDAQGMNAAVRAVTRMGIYVGAKVFLIYEGYEGLVEGGENIKQANWLSVSNIIQLGGTIIGSARCKAFTTREGRRAAAYNLVQHGITNLCVIGGDGSLTGANIFRSEWGSLLEELVAEGKISETTARTYSHLNIAGLVGSIDNDFCGTDMTIGTDSALHRIMEVIDAITTTAQSHQRTFVLEVMGRHCGYLALVSALASGADWLFIPEAPPEDGWENFMCERLGETRSRGSRLNIIIIAEGAIDRNGKPISSSYVKDLVVQRLGFDTRVTVLGHVQRGGTPSAFDRILSSKMGMEAVMALLEATPDTPACVVTLSGNQSVRLPLMECVQMTKEVQKAMDDKRFDEATQLRGGSFENNWNIYKLLAHQKPPKEKSNFSLAILNVGAPAAGMNAAVRSAVRTGISHGHTVYVVHDGFEGLAKGQVQEVGWHDVAGWLGRGGSMLGTKRTLPKGQLESIVENIRIYGIHALLVVGGFEAYEGVLQLVEARGRYEELCIVMCVIPATISNNVPGTDFSLGSDTAVNAAMESCDRIKQSASGTKRRVFIVETMGGYCGYLATVTGIAVGADAAYVFEDPFNIHDLKVNVEHMTEKMKTDIQRGLVLRNEKCHDYYTTEFLYNLYSSEGKGVFDCRTNVLGHLQQGGAPTPFDRNYGTKLGVKAMLWLSEKLREVYRKGRVFANAPDSACVIGLKKKAVAFSPVTELKKDTDFEHRMPREQWWLSLRLMLKMLAQYRISMAAYVSGELEHVTRRTLSMDKGF
notes: human phosphofructokinase-1 liver type (PFKL), NP_002617; Homotetramer; In cryo-EM it mostly formed stacked pairs of tetramers; The sample held ATP, F6P and the small molecule NA-11; also called PFK1 liver isoform; wild-type PFKL; source: Sf9 cells (baculovirus, Bac-to-Bac), purified (HisPur cobalt resin, desalting column)
B1: the Km in data set [1] came to 1970 ± 240 µM. In data set [2], the “stoichiometry N” value was 4 and 8.

B2: PFKL(K315R) (PFKL−pocket) (Homo sapiens; K315R) (protein)
chain: B1 chain with K315R
notes: made in house; host or cells: Sf9 insect cells (baculovirus)
As for B2, in data set [3], the Km was determined as 2060 ± 120 µM.

B3: PFKL(V545L, V582M) (PFKL−hook) (Homo sapiens; V545L/V582M) (protein)
chain: B1 chain with V545L, V582M
notes: as for B2
Consider B3, for which, in data set [4], the Km is 1200 ± 90 µM.
